Tests used:
[1] = test system: CD11b+Ly6G+, CD4+, CD8+, B220+ cells; experiment: Flow cytometry of immune cells in organs of LAP-Tg/KO mice; type: in vivo, mouse
Experimental: Single-cell suspensions from the bone marrow, spleen, blood, liver, and lung were prepared and analyzed as described in Qu et al., Am J Pathol 2009, 174:944-956; Qu et al., Am J Pathol 2010, 176:2394-2404; Qu et al., J Immunol 2009, 182:1648-1659). Approximately 1×10^6 cells from various organs were blocked with FcR blocking antibodies in flow cytometry buffer (BD Biosciences, San Jose, Calif.) followed by incubation with isotype control or surface specific primary antibodies. Anti-CD11b (M1/70) PE-Cyanine7, anti-Ly6G (RB6-8c5) allophycocyanin-eFluor 780, anti-CD4 fluorescein isothiocyanate, anti-CD8 […], and anti-B220 allophycocyanin were purchased from e-Biosciences (San Diego, Calif.). Cells were analyzed on a LSRII machine (BD Biosciences). Data were analyzed using the BD FACStation software (CellQuest Pro version 2.2.1, BD Bio-sciences). The total gated number of positive cells (approximately 30,000 events) was calculated as the percentage of total gated viable cells. Quadrants were assigned using isotype control monoclonal antibody.

[2] = test system: cytokines and chemokines; experiment: Cytokines and chemokines in plasma (ELISA) and liver (qPCR) of LAP-Tg/KO mice; type: in vivo, mouse
Experimental: Total RNAs were purified from livers or isolated hepatocytes using RNeasy Mini Kits according to the manufacturer's instruction (Qiagen). Quantitative real-time RT-PCR (qPCR) was performed as described in Wu et al., Blood 2012, 119:115-126). Relative gene expression levels were analyzed using the 2^−ΔΔCT method. Primers of mouse IL-6, mouse granulocyte-macrophage colony-stimulating factor (GM-CSF), mouse macrophage colony-stimulating factor, mouse tumor necrosis factor (TNF)-α, mouse IL-2, mouse IL-4, mouse IL-17, mouse interferon (IFN)-γ, mouse monocyte chemotactic protein-1 (MCP-1), mouse chemokine ligand (CCL)-3, mouse CCL4, mouse CCL5, mouse CXCL10, and glyceraldehyde-3-phosphate dehydrogenase for qPCR were described in Qu et al. Cancer Res 2009, 69:7252-7261; Zhao et al., Oncogene 2014, 34:1938-1948.
The expression levels of IL-6, GM-CSF, MCP-1 (BD Bio-sciences), and CCL5 (R&D Systems, Minneapolis, Minn.) in the plasma and hepatocyte culture medium were measured using enzyme-linked immunosorbent assay (ELISA) kits according to the manufacturer's instructions.

[3] = test system: B16 melanoma cells; experiment: B16 melanoma metastasis in CCSP-Tg/KO mice; type: in vivo, mouse; conditions: lung epithelial-specific expression in lal−/− mice; 5×10^5 cells i.v., two weeks
Experimental: For the tumor metastasis model, 5×10^5 B16 melanoma cells in 200 μL PBS were injected into the mice via tail vein. Two weeks after the injection, the mice were sacrificed and the lungs were harvested for examination of metastasis.

[4] = test system: CD4+ T cells; experiment: T cell proliferation assay with BALF cells of CCSP-Tg/KO mice; type: cell-based, mouse; conditions: BALF cells from doxycycline-treated CCSP-Tg/KO mice; BALF cells:CD4+ T cells 1:5, 4 days
Experimental: To determine the immunosuppressive effects of BALF cells, BALF was harvested by PBS. After the centrifugation, the resulting cell pellets were collected and used. CD4^+ T cells were prepared and CFSE labeled as we previously described (15). Labeled CD4^+ T cells were co-cultured with BALF cells in 96-well plates pre-coated with anti-CD3 monoclonal antibody (mAb) (2 μg/mL) and anti-CD28 mAb (5 μg/mL) at 37° C., 5% CO2 for 4 days. The ratio of BALF cells:CD4^+ T cells was 1:5. Proliferation of CD4^+ T cells was evaluated as CFSE dilution by FACS.

[5] = test system: LLC or B16 melanoma cells; experiment: In vitro BALF treatment of tumor cells (proliferation, wound healing); type: cell-based, mouse
Experimental: BALF was harvested by 1 mL PBS, and cells were removed by centrifugation. To determine the effect of BALF on tumor cell proliferation, B16 melanoma or LLC cells (5×10^3) were seeded into a well of 96-well plates in 100 μL DMEM supplemented with 10% FBS, and then treated with 100 μL BALF harvested from lal^+/+, lal^−/− or CCSP-Tg/KO triple mice. Seventy-two hours later, the number of B16 melanoma or LLC cells was counted.
To analyze the effects of BALF on tumor cell or EC migration, in vitro wound healing assays were performed. Briefly, tumor cells or ECs were seeded at a density of 1.5×10^5 cells/well into a 24-well plate and incubated overnight to form a confluent monolayer. Scratch was created by scraping the cell monolayer in a straight line with a p200 pipet tip. After washing 3 times with PBS, the medium was changed with 250 μL DMEM containing 10% FBS and 5 μg/mL mitomycin C (Sigma-Aldrich). Then 250 μL BALF from lal^+/+, lal^−/− or CCSP-Tg/KO triple mice were added to the well. Cells were kept on culture at 37° C., 5% CO2. Images were taken at 0 and 15 hours after creating the scratch. Migration was estimated by measuring the distances from one side of the scratch to the other side using Image Pro-Plus software (Media Cybernetics, Rockville, Md., USA).

[6] = doxycycline-untreated LAP-Tg/KO triple mice (hLAL on)

B1: hLAL: human lysosomal acid lipase expressed from a doxycycline-controlled tissue-specific transgene in lal−/− mice; never administered as a protein (protein)
chain: GPKPVVFLQHGLLADSSNWVTNLANSSLGFILADAGFDVWMGNSRGNTWSRKHKTLSVSQDEFWAFSYDEMAKYDLPASINFILNKTGQEQVYYVGHSQGTTIGFIAFSQIPELAKRIKMFFALGPVASVAFCTSPMAKLGRLPDHLIKDLFGDKEFLPQSAFLKWLGTHVCTHVILKELCGNLCFLLCGFNERNLNMSRVDVYTTHSPAGTSVQNMLHWSQAVKFQKFQAFDWGSSAKNYFHYNQSYPPTYNVKDMLVPTAVWSGGHDWLADVYDVNILLTQITNLVFHESIPEWEHLDFIWGLDAPWRLYNKIINLMRKYQ
modifications: left off: small tags and cut ends
notes: human lysosomal acid lipase expressed from a doxycycline-controlled tissue-specific transgene in lal−/− mice; never administered as a protein
B1 was tested, and the “CD11b+Ly6G+ cell expansion in blood, spleen, lung, bone marrow” value [1, 6] was “reduction of CD11b^+Ly6G^+ cell expansion was also observed in the blood, spleen, and lung, but not in the bone marrow”, the “percentage and total number of CD11b+Ly6G+ cells in the liver” value [1, 6] was “decreased to the levels of wild-type mice” and the “CD4+ T cells in blood, lung and spleen” value ([1]; hepatocyte-specific expression, LAP-Tg/KO triple mice) was “increased CD4^+ T cells”. The “liver IL-4 and IL-17 mRNA levels” value [2, 6] was “unchanged”, the “liver mRNA levels of IL-2 and IFN-γ” value [2, 6] was “reduced mRNA levels” and the “liver mRNA levels of IL-6, GM-CSF, M-CSF and TNF-α” value [2, 6] was “significantly down-regulated”. The “liver mRNA of chemokines MCP-1, CCL3, CCL4, CCL5 and CXCL10” value [2, 6] was “markedly down-regulated”, the “plasma concentrations of IL-6, GM-CSF, MCP-1 and CCL5 (ELISA)” value ([2]; untreated (hLAL on) vs doxycycline-treated LAP-Tg/KO mice) was “decreased” and the “B16 melanoma cell metastasis in the lung” value [3] was “reduced B16 melanoma cell metastasis”. For the same molecule, the “inhibition of T cell proliferation by BALF cells” value [4] was “reduced inhibition on T cell proliferation”, the “tumor cell proliferation in vitro” value ([5]; LLC or B16 cells cultured 72 hours with BALF from doxycycline-treated CCSP-Tg/KO mice) was “reduced” and the “tumor cell migration in vitro” value ([5]; LLC or B16 cells, wound healing 15 hours, BALF from doxycycline-treated CCSP-Tg/KO mice, mitomycin C) was “reduced”.
